Measured values from paper PMC12861225.

B1: Tissue-nonspecific alkaline phosphatase (TNALP): N271Q/N430D (protein)
parent chain: MISPFLVLAIGTCLTNSLVPEKEKDPKYWRDQAQETLKYALELQKLNTNVAKNVIMFLGDGMGVSTVTAARILKGQLHHNPGEETRLEMDKFPFVALSKTYNTNAQVPDSAGTATAYLCGVKANEGTVGVSAATERSRCNTTQGNEVTSILRWAKDAGKSVGIVTTTRVNHATPSAAYAHSADRDWYSDNEMPPEALSQGCKDIAYQLMHNIRDIDVIMGGGRKYMYPKNKTDVEYESDEKARGTRLDGLDLVDTWKSFKPRYKHSHFIWNRTELLTLDPHNVDYLLGLFEPGDMQYELNRNNVTDPSLSEMVVVAIQILRKNPKGFFLLVEGGRIDHGHHEGKAKQALHEAVEMDRAIGQAGSLTSSEDTLTVVTADHSHVFTFGGYTPRGNSIFGLAPMLSDTDKKPFTAILYGNGPGYKVVGGERENVSMVDYAHNNYQAQSAVPLRHETHGGEDVAVFSKGPMAHLLHGVHEQNYVPHVMAYAACIGANLGHCAPASSAGSLAAGPLLLALALYPLSVLF
B2: Tissue-nonspecific alkaline phosphatase (TNALP): N271Q/N303Q (protein)
parent chain: B1 parent chain
B3: Tissue-nonspecific alkaline phosphatase (TNALP): N303Q/N430D (protein)
parent chain: B1 parent chain
B4: Tissue-nonspecific alkaline phosphatase (TNALP): N230Q/N271Q/N430D (protein)
parent chain: B1 parent chain
B5: Tissue-nonspecific alkaline phosphatase (TNALP): N140Q/N230Q/N430D (protein)
parent chain: B1 parent chain
B6: Tissue-nonspecific alkaline phosphatase (TNALP): N230Q/N271Q/N303Q (protein)
parent chain: B1 parent chain
B7: Tissue-nonspecific alkaline phosphatase (TNALP): N230Q/N303Q (protein)
parent chain: B1 parent chain
B8: Tissue-nonspecific alkaline phosphatase (TNALP): N140Q/N230Q (protein)
parent chain: B1 parent chain
B9: Tissue-nonspecific alkaline phosphatase (TNALP): N430D (protein)
parent chain: B1 parent chain
B10: Tissue-nonspecific alkaline phosphatase (TNALP): N303Q (protein)
parent chain: B1 parent chain
B11: Tissue-nonspecific alkaline phosphatase (TNALP): N140Q (protein)
parent chain: B1 parent chain
B12: Tissue-nonspecific alkaline phosphatase (TNALP): N230Q (protein)
parent chain: B1 parent chain
B13: Tissue-nonspecific alkaline phosphatase (TNALP): N230Q/N430D (protein)
parent chain: B1 parent chain
B14: Tissue-nonspecific alkaline phosphatase (TNALP): N271Q (protein)
parent chain: B1 parent chain
B15: Tissue-nonspecific alkaline phosphatase (TNALP): N140Q/N430D (protein)
parent chain: B1 parent chain
B16: Tissue-nonspecific alkaline phosphatase (TNALP): N140Q/N271Q (protein)
parent chain: B1 parent chain
B17: Tissue-nonspecific alkaline phosphatase (TNALP): N230Q/N271Q (protein)
parent chain: B1 parent chain
B18: Tissue-nonspecific alkaline phosphatase (TNALP): heterodimeric N271Q/N430D (protein)
parent chain: B1 parent chain
B19: Tissue-nonspecific alkaline phosphatase (TNALP): heterodimeric N271Q/N303Q (protein)
parent chain: B1 parent chain
B20: Tissue-nonspecific alkaline phosphatase (TNALP): heterodimeric N303Q/N430D (protein)
parent chain: B1 parent chain
B21: Tissue-nonspecific alkaline phosphatase (TNALP): N140Q/N303Q (protein)
parent chain: B1 parent chain
B22: Tissue-nonspecific alkaline phosphatase (TNALP): heterodimeric N230Q/N430D (protein)
parent chain: B1 parent chain

Assay: remaining pNPP activity after 15 min at 56 °C; homodimeric
Settings: glycan lost; control: wild type

Protein | stability_or_folding, other: remaining activity
B1 | increases, 63 ± 5 vs 23 ± 4
B2 | decreases, 12 ± 1 vs 23 ± 4
B3 | increases, 47 ± 13 vs 23 ± 4

Assay: pNPP activity of supernatant; triple-site mutants
Settings: glycan lost; control: wild type

Protein | enzymatic_activity
B4 | abolishes
B5 | abolishes
B6 | abolishes

Assay: SYPRO Orange thermal shift, pooled purified protein
Settings: glycan lost; control: wild type

Protein | stability_or_folding, Tm
B7 | no change, 54.1 vs 54.5
B1 | increases, 55.3, 69.7 vs 54.5
B8 | no change, 54.9 vs 54.5
B9 | increases, 55.7 vs 54.5
B10 | decreases, 53.7 vs 54.5
B2 | decreases, 52.9 vs 54.5
B11 | no change, 54.9 vs 54.5
B3 | increases, 55.3, 70.1 vs 54.5
B12 | no change, 54.5 vs 54.5
B13 | increases, 55.7 vs 54.5
B14 | no change, 54.5 vs 54.5
B15 | increases, 56.5 vs 54.5
B16 | decreases, 53.7 vs 54.5

Assay: anti-Flag immunoblot, lysate vs medium, 1 μM MG-132 16 h
Settings: glycan lost; control: wild type

Protein | localisation_or_trafficking, fold_change
B17 | changes
B16 | changes

Assay: remaining pNPP activity after 56 °C; mutant:WT plasmid 1:1
Settings: glycan lost; control: wild type

Protein | stability_or_folding
B18 | no change
B19 | no change
B20 | no change

Assay: weak anion-exchange HPLC with activity-based detection
Settings: glycan lost; control: wild type

Protein | other: HPLC isoform profile
B7 | no change
B21 | no change
B1 | changes
B9 | no change
B10 | no change
B2 | changes
B11 | no change
B3 | changes
B12 | no change
B13 | changes
B14 | no change
B15 | changes

Assay: pNPP activity of supernatant, normalised to total protein; homodimeric single mutants
Settings: glycan lost; control: wild type

Protein | enzymatic_activity, other: specific activity
B9 | no change
B10 | no change
B11 | no change
B12 | no change

Assay: anti-Flag capillary immunoblot of Flag-purified medium, pooled n=6
Settings: glycan lost; control: wild type

Protein | expression_or_secretion, fold_change
B7 | decreases, 0.4 vs 1.0
B21 | decreases, 0.4 vs 1.0
B1 | decreases, 0.7 vs 1.0
B8 | decreases, 0.5 vs 1.0
B9 | decreases, 0.5 vs 1.0
B10 | decreases, 0.5 vs 1.0
B2 | decreases, 0.4 vs 1.0
B11 | decreases, 0.4 vs 1.0
B17 | abolishes, 0.0 vs 1.0
B3 | decreases, 0.7 vs 1.0
B12 | decreases, 0.5 vs 1.0
B13 | decreases, 0.6 vs 1.0
B14 | decreases, 0.4 vs 1.0
B15 | decreases, 0.6 vs 1.0
B16 | decreases, 0.2 vs 1.0

Assay: pNPP activity; mutant:WT plasmid 1:1 (heterodimers not confirmed)
Settings: glycan lost; control: wild type plasmid only

Protein | enzymatic_activity, percent_of_wt
B18 | decreases
B22 | no change
B19 | decreases
B20 | decreases

Assay: pNPP activity of supernatant, normalised to total protein; homodimeric double mutants
Settings: glycan lost; control: wild type

Protein | enzymatic_activity, other: specific activity
B7 | no change, 9.5 ± 6.5 vs 13.6 ± 6.6
B21 | decreases, 3.5 ± 2.7 vs 13.6 ± 6.6
B1 | decreases, 4.3 ± 3.4 vs 13.6 ± 6.6
B8 | decreases, 3.8 ± 3.9 vs 13.6 ± 6.6
B2 | decreases, 3.9 ± 2.8 vs 13.6 ± 6.6
B3 | decreases, 4.7 ± 4 vs 13.6 ± 6.6
B13 | no change, 9 ± 6 vs 13.6 ± 6.6
B15 | decreases, 7 ± 4.3 vs 13.6 ± 6.6
